In article PMC5052687 (2016):

B1: MCvar1 PfEMP1 CIDRα2.8 domain (residues 576-745, C626S) [Plasmodium falciparum] / human CD36 ectodomain (residues 35-439) with C-terminal BAP tag, biotinylated [modified: biotin on the BAP tag (in vitro, BirA ligase); biotin on the BAP tag … (parent complex)
chain 1: EDKIMSYNAFFWMWVHDMLIDSIKWRDEHGRCINKDKGKTCIKGCNKKCISFQKWVEQKKTEWGKIKDHFRKQKDIPKDWTHDDFLQTLLMKDLLLEIIQDTYGDANEIKRIEALLEQAGVGGIDFAALAGLYTKGFVAEKDTTIDKLLQHEQKEADKCLKTHTDDTCPP
chain 2: QKTIKKQVVLEEGTIAFKNWVKTGTEVYRQFWIFDVQNPQEVMMNSSNIQVKQRGPYTYRVRFLAKENVTQDAEDNTVSFLQPNGAIFEPSLSVGTEADNFTVLNLAVAAASHIYQNQFVQMILNSLINKSKSSMFQVRTLRELLWGYRDPFLSLVPYPVTTTVGLFYPYNNTADGVYKVFNGKDNISKVAIIDTYKGKRNLSYWESHCDMINGTDAASFPPFVEKSQVLQFFSSDICRSIYAVFESDVNLKGIPVYRFVLPSKAFASPVENPDNYCFCTEKIISKNCTSYGVLDISKCKEGRPVYISLPHFLYASPDVSEPIDGLNPNEEEHRTYLDIEPITGFTLQFAKRLQVNLLVKPSEKIQVLKNLKRNYIVPILWLNETGTIGDEKANMFRSQVTGKIN

Variants of: B1
Test: SPR; plateau of the top sensorgram (highest analyte concentration of the series); concentrations not given; parent: 62; read off a plot

| Variant | response [RU] |
| --- | --- |
| chain 1 D75A | ~20 |
